Results reported in article PMC8961594.

Assays:
[1] = target: Histone 2B (H2B) on the surface of HUVECs (human (endogenous in HUVEC)) (UniProt P62807)
[2] = target: Histone 2B (H2B) on the surface of HUVECs (human (endogenous in HUVEC)) (UniProt P62807); remark: listed apart in the source

## Human Glu-plasminogen (ligand)
[1]
  migration of Plg-treated (200 nM) HUVECs in Boyden chambers: decrease by Fab of the anti-H2B mAb (20 µg/mL) against control mouse Fab (Figure 3A): 47%
[2]
  Plg-mediated migration of HUVECs in Boyden chambers: decrease by anti-H2B against Plg-treated cells with control mouse IgG (Figure 3B): 50%
